Patent US20250179183A1
Where two headings read alike, the source gives them in different places.

Key:
[1] = molecular target: cynomolgus monkey CD32a (cynomolgus monkey)
[2] = molecular target: cynomolgus monkey CD32b (cynomolgus monkey)
[3] = molecular target: cynomolgus monkey CD32a (cynomolgus monkey); remark: listed apart in the source

Rituximab (antibody)
Kd [1]: 5.94 µM
Kd [2]: 1.46 µM
Kd [3]: 3.13 µM
